Measurements from patent US20260116958A1 (University of California, published 2026).

Experiments:
[1] = molecular target: T1, active BoNT/G holotoxin (Clostridium botulinum, UniProt Q60393 2-1297); test: KinExA, IgG
T1 sequence: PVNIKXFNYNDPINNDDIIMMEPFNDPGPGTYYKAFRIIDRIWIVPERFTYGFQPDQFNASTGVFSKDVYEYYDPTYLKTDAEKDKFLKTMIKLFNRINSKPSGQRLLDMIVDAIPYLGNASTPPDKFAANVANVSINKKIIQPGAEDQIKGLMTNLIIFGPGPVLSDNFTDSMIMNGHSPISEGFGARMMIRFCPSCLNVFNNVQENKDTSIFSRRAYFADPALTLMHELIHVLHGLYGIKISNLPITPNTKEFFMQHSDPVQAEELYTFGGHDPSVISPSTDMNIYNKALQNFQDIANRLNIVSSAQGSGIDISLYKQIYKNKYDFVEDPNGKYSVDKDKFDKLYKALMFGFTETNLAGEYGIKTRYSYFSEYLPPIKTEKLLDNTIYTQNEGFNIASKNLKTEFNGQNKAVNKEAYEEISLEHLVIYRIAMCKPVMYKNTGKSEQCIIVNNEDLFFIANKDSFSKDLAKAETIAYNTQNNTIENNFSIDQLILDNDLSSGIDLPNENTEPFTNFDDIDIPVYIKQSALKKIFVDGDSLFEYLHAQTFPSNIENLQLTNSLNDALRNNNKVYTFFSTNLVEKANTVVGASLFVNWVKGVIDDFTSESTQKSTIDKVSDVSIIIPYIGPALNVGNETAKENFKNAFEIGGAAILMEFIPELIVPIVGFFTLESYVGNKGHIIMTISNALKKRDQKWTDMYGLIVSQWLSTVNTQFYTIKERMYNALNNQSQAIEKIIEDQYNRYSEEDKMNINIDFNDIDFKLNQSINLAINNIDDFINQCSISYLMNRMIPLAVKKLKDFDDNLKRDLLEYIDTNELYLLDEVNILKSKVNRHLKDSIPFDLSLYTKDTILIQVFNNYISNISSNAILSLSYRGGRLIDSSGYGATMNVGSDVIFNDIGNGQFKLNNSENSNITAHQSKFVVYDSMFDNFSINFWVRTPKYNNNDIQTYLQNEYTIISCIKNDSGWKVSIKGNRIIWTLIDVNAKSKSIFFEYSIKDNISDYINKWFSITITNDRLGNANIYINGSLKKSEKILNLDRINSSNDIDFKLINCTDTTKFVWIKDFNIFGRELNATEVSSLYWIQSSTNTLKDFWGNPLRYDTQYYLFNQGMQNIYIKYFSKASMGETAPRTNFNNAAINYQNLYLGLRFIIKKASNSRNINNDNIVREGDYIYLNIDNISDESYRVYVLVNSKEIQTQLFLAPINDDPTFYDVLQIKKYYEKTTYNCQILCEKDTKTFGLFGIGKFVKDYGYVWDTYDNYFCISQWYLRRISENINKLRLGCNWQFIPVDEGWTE

[2] = molecular target: T1, active BoNT/G holotoxin; test: KinExA, IgG; 'affinity to the active BoNT/G holotoxin'

B1: Hu6G7.2 IgG (antibody, V domains shown)
VH: QVQLVQSGAEVKKPGASVKVSCKASDYSFTDYNIYWVRQTPGQGLEWIGYIDPYNGGTSYNQKFKGRATLTVDKSISTAYMELSRLRSDDTAVYYCALYGYDPDYTEYWGQGTTLTVSS
VL: DIVLTQSPASMAVSPGQRVTITCSASSSVSYLHWFQQKPGQSPKLWIYSTSNLASGVPARFSGSGSGTDYTLTINPMEAEDTATYYCQQRSSYPYTFGQGTKLEIKR
For B1, the Kd [1] was 0.051 nM and the Kd [2] was 0.051 nM.
